Source: patent publication US20060270837A1 (published 2006)
Changes are numbered by the printed parent chain.

B1: IgG1 antibody comprising the VH and VL domains of the T1014G03 scFv (antibody, V domains shown)
VH: EVQLVQSGAEVKMPGASVKLSCRVSGDTFTAYFIHWVRQAPGQGLEWMGWFNPISGTAGSAEKFRGRVAMTRDTSISTAYMELNRLTFDDTAVYYCARQHRGNTFDPWGQGTLVTVSS
VL: QSALTQPASVSGSPGQSITISCTGTSSDIGAYKYVSWYQQHPGKAPKLVIYEVSNRPSGVSSRFSGSKSGQTASLTISGLQADDEADYYCNSYQGYNTWVFGGGTKVTVLG
notes: Whole IgG1
B2: IgG1 antibody comprising the VH and VL domains of the T1014A04 scFv (antibody, V domains shown)
VH: EVQLVQSGADVKRPGASVKVSCKISGDSFNAYFIHWVRQAPGQGLEWMGWFNPDSGTADSAQKFHGRVTMTRDTSSSTAFLELSRLRSDDTAVYYCVRQHRGNTFAPWGRGTMVTVSS
VL: QSVLTQPPSASGSPGQSVTISCTGTTSDVGGYNYVSWYQQHPGKAPKLMIYGVNQRPSGVPDRFSGSKSGNTASLTVSGLQAEDEADYYCSSYAGSNNWVFGGGTKLTVLG
notes: Whole IgG1; also called IgG1 format of T1014A04
B3: IgG1 antibody comprising the VH and VL domains of the T1014G04 scFv (antibody, V domains shown)
VH: B2 VH with N30T, M113L
VL: QPVLTQPPSASGSPGQSVTISCTGTSSDVGSYEYVSWYQQHPGKAPRLMISEVNKRPSGVPNRFSGSKSGNTASLTVSGLQADDEADYYCSSYAGSNNWVFGGGTKVTVLG
notes: Whole IgG1; also called T14G04
B4: scFv T1014F08 (scFv)
scFv: EVQLVQSGAEVKKPGASVKLSCRVSGDTFTAYFIHWVRQAPGQGPEWMGWFNPISGTAGSAARFRGRVAMTRDTSISTAYMELNRLTFDDTAVYYCARQHRGNTFDPWGKGTLVTVSSGGGGSGGGGSGGGGSALPVLTQPPSASGSPGQSVTISCTGTSSDVGGYKYVSWYQQHPGKAPKLMIYEVSMRPSGVPDRFSGSKSGNTASLTVSGLQAEDEADYYCASYAGSNNWVFGGGTKLTVLG
B5: scFv T1014G04 (scFv)
scFv: EVQLVQSGADVKRPGASVKVSCKISGDSFTAYFIHWVRQAPGQGLEWMGWFNPDSGTADSAQKFHGRVTMTRDTSSSTAFLELSRLRSDDTAVYYCVRQHRGNTFAPWGRGTLVTVSSGGGGSGGGGSGGGGSAQPVLTQPPSASGSPGQSVTISCTGTSSDVGSYEYVSWYQQHPGKAPRLMISEVNKRPSGVPNRFSGSKSGNTASLTVSGLQADDEADYYCSSYAGSNNWVFGGGTKVTVLG
B6: scFv T1014B11 (scFv)
scFv: EVQLVQSGAEVKKPGASVKVSCKISGDSFTAYFIHWLRQAPGEGLEWMGWFNPISGTAGSPQKFHGRVAMTRDTSISTAYMELTRLASDDTAIYYCARQHHSNTFDPWGQGTLVTVSSGGGGSGGGGSGGGGSAQSALTQPASVSGSPGQSITISCTGTNSDVGGYNYVSWYQQHPGKAPKLMIYEVNNRPSGVSNRFSGSKSGNTASLTISGLQADDEADYYCSSYTTSNTWVFGGGTKLTVLG
B7: scFv T1014A04 (scFv)
scFv: EVQLVQSGADVKRPGASVKVSCKISGDSFNAYFIHWVRQAPGQGLEWMGWFNPDSGTADSAQKFHGRVTMTRDTSSSTAFLELSRLRSDDTAVYYCVRQHRGNTFAPWGRGTMVTVSSGGGGSGGGGSGGGGSAQSVLTQPPSASGSPGQSVTISCTGTTSDVGGYNYVSWYQQHPGKAPKLMIYGVNQRPSGVPDRFSGSKSGNTASLTVSGLQAEDEADYYCSSYAGSNNWVFGGGTKLTVLG
B8: scFv T1014G03 (scFv)
scFv: EVQLVQSGAEVKMPGASVKLSCRVSGDTFTAYFIHWVRQAPGQGLEWMGWFNPISGTAGSAEKFRGRVAMTRDTSISTAYMELNRLTFDDTAVYYCARQHRGNTFDPWGQGTLVTVSSGGGGSGGGGSGGGGSAQSALTQPASVSGSPGQSITISCTGTSSDIGAYKYVSWYQQHPGKAPKLVIYEVSNRPSGVSSRFSGSKSGQTASLTISGLQADDEADYYCNSYQGYNTWVFGGGTKVTVLG

Biological target: T1, TR4-Fc fusion protein (human, UniProt O00220 109-240)
T1 construct: also called TR4:Fc receptor; not shown: Fc region
T1 chain: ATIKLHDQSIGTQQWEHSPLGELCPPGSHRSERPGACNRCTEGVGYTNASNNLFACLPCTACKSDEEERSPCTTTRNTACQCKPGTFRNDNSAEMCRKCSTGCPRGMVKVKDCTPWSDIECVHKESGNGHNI
Assay: SPR (BIAcore 2000), TR4:Fc amine-coupled on CM5 chip, IgG1 as analyte 0.75-65 nM, TR2:Fc control cell, double reference subtraction, 1:1 Langmuir fit, 25 C
Procedure: The optimal pH for this coupling was analyzed using preconcentration experiments ranging from pH 4-7 and was determined to be pH 4.0 for both the TR4 and the TR2 receptor. Amine coupling was used to covalently bind each receptor (fc) to the dextran matrix on the CM5 sensor chip. The immobilization experiment was performed using the manual injection mode. The entire immobilization experiment was performed at 5 μL/min. A 3-minute injection of EDC/NHS (1:1) was applied to each flow cell to active esters. A target level of ˜200RU was set as the goal for all each flow cell. Fc-fusion receptors, TR4 and TR2 at 5 μg/mL, were immobilized onto individual flow cells of a sensor chip. The amount applied varied from 8-14 μL. A 3-minute ethanolamine injection completed the immobilization experiment by inactivating the esters.
The kinetics cycles were performed as follows: The flow rate for the entire cycle was 25 μL/minute with the flow path including both the control (TR2) and experimental (TR4) flow cell at all times. A 1-minute buffer injection was applied to stabilize the baseline. The purified antibody (IgG1 antibody comprising the VH and VL domains of each of the T1014A04, T1014G03, T1014F08, and T14G04 scFvs) was diluted from 10 μg/mL (65 nM) to 0.115 μg/mL (0.75 nM) in running buffer and tested in duplicate. Each concentration was in contact with the control (TR2) and the experimental (TR4) flow cell during a 4-minute association and a 10-minute dissociation phase. Regeneration was performed using 25 mM NaOH from 5-12 μL depending on the sample concentration.
A double-reference subtraction was performed, which refers to the control flow cell subtraction for every cycle, in addition to a buffer cycle subtraction. The 1:1 Langmuir model was used for all evaluation fitting.

Binder	Kd [nM]
B1	0.554
B2	0.468
B3	0.194

biological target: T2, TR10 (human, UniProt Q9UBN6 56-211, limits assumed); assay: specificity phage ELISA, antigen coated at 1 ug/ml, anti-M13-HRP detection
T2 construct: The construct coated in the specificity phage ELISA is not described; also called TRAIL-R4; DcR2
T2 sequence: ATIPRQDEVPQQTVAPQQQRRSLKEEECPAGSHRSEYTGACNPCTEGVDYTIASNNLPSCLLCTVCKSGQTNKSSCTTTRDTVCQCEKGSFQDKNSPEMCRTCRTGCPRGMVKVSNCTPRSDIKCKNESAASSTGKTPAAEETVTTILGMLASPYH
Procedure: (§1) Flexible 96-well plates (Falcon) were coated overnight at 4° C. with each antigen (1 μg/ml). All antigens were coated in PBS. After coating, the solutions were removed from the wells, and the plates were blocked for 1 hour at room temperature in MPBS. The plates were washed 3 times with PBS and then 50 μl of pre-blocked phage was added to each well. The plates were incubated at room temperature for 1 hour and then washed with 3 changes of PBST followed by 3 changes of PBS.
(§2) To each well, 50 μl of an anti-M13-HRP conjugate (Pharmacia) at a 1 in 5000 dilution in MPBS was added and the plates incubated at room temperature for 1 hour. Each plate was washed three times with PBST followed by three times with PBS.
(§3) Fifty μl of TMB substrate was then added to each well, and incubated at room temperature for 30 minutes or until colour development. The reaction was stopped by the addition of 25 μl of 0.5 M H₂SO₄. The signal generated was measured by reading the absorbance at 450 nm (A₄₅₀) using a microtitre plate reader (Bio-Rad 3550).

Binder	binding result
B4	no binding
B5	no binding
B6	no binding
B7	no binding
B8	no binding

biological target: T3, TR7 (human, UniProt O14763 52-184); assay: as above
T3 construct: The construct coated in the specificity phage ELISA is not described; also called TRAIL-R2; DR5
Procedure: as §1, §2, §3

T3 sequence (O14763 52-184 limits assumed): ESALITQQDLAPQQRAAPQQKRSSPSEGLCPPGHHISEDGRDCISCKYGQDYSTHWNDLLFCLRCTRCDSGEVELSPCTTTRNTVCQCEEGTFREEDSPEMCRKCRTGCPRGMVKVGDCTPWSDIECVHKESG

Binder	binding result
B4	no binding
B5	no binding
B6	no binding
B7	no binding
B8	no binding

biological target: BLyS (human, UniProt Q9Y275 134-285); assay: as above
Procedure: as §1, §2, §3

BLyS, sequence (Q9Y275 134-285 limits assumed): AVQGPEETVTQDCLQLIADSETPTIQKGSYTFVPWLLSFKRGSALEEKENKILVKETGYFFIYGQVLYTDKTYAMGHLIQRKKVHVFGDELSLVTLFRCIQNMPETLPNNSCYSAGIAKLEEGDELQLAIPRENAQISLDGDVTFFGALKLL

Binder	binding result
B4	no binding
B5	no binding
B6	no binding
B7	no binding
B8	no binding
